In patent US20230227568A1 (Pieris, published 2023):

Key:
[1] = target: T1, recombinant hu4-1BB-His (human 4-1BB with a C-terminal polyhistidine tag, R&D Systems) (human, UniProt Q07011 24-186); test: ELISA, hu4-1BB-His coated, detection anti-NGAL-HRP
T1 construct: Bought; not shown: C-terminal polyhistidine tag
Description: Recombinant hu4-1BB-His (human 4-1BB with a C-terminal polyhistidine tag, R&D Systems) at the concentration of 1 μg/mL in PBS was coated overnight on microtiter plates at 4° C. After washing with PBS-0.05% T (PBS supplemented with 0.05% (v/v) Tween 20), the plates were blocked with 2% BSA (w/v) in PBS-0.1% T (PBS supplemented with 0.1% (v/v) Tween 20) for 1 h at room temperature. After washing with 100 μL PBS-0.05% T five times, exemplary multimeric proteins (SEQ ID NOs: 38-44 and 46-53) or 4-1BB-specific lipocalin mutein as included in the multimeric protein (SEQ ID NO: 64) at different concentrations, ranging from 100 to 0.002 nM, were added to the wells and incubated for 1 h at room temperature, followed by another wash step. Bound molecules under study were detected by incubation with 1:1000 diluted anti-NGAL-HRP in PBS-0.1% T-2% BSA. After an additional wash step, fluorogenic HRP substrate (QuantaBlu, Thermo) was added to each well and the fluorescence intensity was detected using a fluorescence microplate reader.
The results of exemplary experiments are depicted in FIG. 2, together with the fit curves resulting from a 1:1 binding sigmoidal fit, where the EC₅₀ value and the maximum signal were free parameters, and the slope was fixed to one. The observed EC₅₀ values toward the hu4-1BB of all tested multimeric proteins were in the sub nanomolar range.

[2] = target: T2, cynomolgus 4-1BB on CHO cells (cynomolgus, UniProt A9YYE7 24-254); test: flow cytometry, Flp-In-CHO::cyno4-1BB cells
T2 construct: also called Flp-In-CHO::cyno4-1BB; cynomolgus 4-1BB-expressing CHO cells
T2 sequence (A9YYE7 entry or part of it limits assumed): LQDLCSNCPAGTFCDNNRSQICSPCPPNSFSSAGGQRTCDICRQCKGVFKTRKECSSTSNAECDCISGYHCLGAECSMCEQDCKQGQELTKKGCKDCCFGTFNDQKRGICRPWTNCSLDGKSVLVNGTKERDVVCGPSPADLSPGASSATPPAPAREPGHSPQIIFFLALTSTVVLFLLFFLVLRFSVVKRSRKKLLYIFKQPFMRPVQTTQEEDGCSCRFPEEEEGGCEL
Description: (§1) CHO cells were stably transfected with human 4-1BB, cynomolgus 4-1BB, or a mock control using the Flp-In system (Life Technologies) according to the manufacturer's instructions. Transfected CHO cells were maintained in Ham's F12 medium (Life Technologies) supplemented with 10% Fetal Calf Serum (Biochrom) and 500 μg/ml Hygromycin B (Roth). Cells were cultured in cell culture flasks according to manufacturer's instruction (37° C., 5% CO₂ atmosphere).
(§2) 5×10⁴ cells per well were incubated for 1 h in ice-cold PBS containing 5% fetal calf serum (PBS-FCS). A dilution series of the tested multimeric proteins (SEQ ID NOs: 38-44 and 46-55), the 4-1BB-targeting lipocalin mutein as included in the multimeric proteins (SEQ ID NO: 64) or the GPC3-targeting lipocalin SEQ ID NO: 90 were added to the cells and incubated for 1 h on ice. Cells were washed twice with PBS and then incubated with a rabbit anti-NGAL or a goat anti-human IgG labeled with fluorescent dye Alexa 488 for 30 min on ice. Human IgG4 isotype (SEQ ID NOs: 29 and 30) and lipocalin mutein SEQ ID NO: 8 were tested as a negative control. Cells were subsequently washed and analyzed using iQue Flow cytometer (Intellicyte Screener). Mean geometric fluorescent signals were plotted and fitted with Graphpad software using nonlinear regression (shared bottom, four parameters, variable slope).

human 4-1BB on cells [3] = target: T3, human 4-1BB on cells (human, UniProt Q07011 24-255); test: flow cytometry, Flp-In-CHO::hu4-1BB cells
T3 construct: whole, on cells; Stably transfected CHO cells (flow cytometry) and bought Jurkat reporter cells (bioassay); also called Flp-In-CHO::hu4-1BB; human 4-1BB-expressing CHO cells
T3 sequence (Q07011 24-255): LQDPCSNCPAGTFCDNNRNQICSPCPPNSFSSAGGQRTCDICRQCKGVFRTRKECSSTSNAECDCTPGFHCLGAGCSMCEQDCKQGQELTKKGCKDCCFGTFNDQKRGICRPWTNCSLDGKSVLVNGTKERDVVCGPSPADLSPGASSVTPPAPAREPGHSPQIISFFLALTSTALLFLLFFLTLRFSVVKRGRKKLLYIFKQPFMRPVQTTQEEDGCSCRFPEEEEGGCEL
Description: as §1, §2

hu4-1BB-Fc (R&D Systems) = target: T4, hu4-1BB-Fc (R&D Systems) (human, UniProt Q07011 24-186); test: SPR (Biacore 8K), hu4-1BB-Fc captured by anti-human IgG Fc; apparent value, 1:1 fit
T4 construct: Bought; also called human 4-1BB; not shown: human IgG Fc of the bought fusion
Description: The anti-human IgG Fc antibody (GE Healthcare) was immobilized on a CM5 sensor chip using standard amine chemistry: the carboxyl groups on the chip were activated using 1-ethyl-3-(3-dimethylaminopropyl)-carbodiimide (EDC) and N-hydroxysuccinimide (NHS). Subsequently, anti-human IgG Fc antibody solution (GE Healthcare) at a concentration of 25 μg/mL in 10 mM sodium acetate (pH 5.0) was applied at a flow rate of 5 μL/min until an immobilization level of 4000-10000 resonance units (RU) was achieved. Residual non-reacted NHS-esters were blocked by passing a solution of 1 M ethanolamine across the surface. The reference channel was treated in an analogous manner. Subsequently, hu4-1BB-Fc (R&D Systems) at 0.3 μg/mL was captured by the anti-human IgG-Fc antibody at the chip surface for 180 s at a flow rate of 10 μL/min.
The binding assay was carried out with a contact time of 180 s, a dissociation time of 1200 s or 3000 s and a flow rate of 30 μL/min. All measurements were performed at 25° C. Lipocalin mutein SEQ ID NO: 64 as included in the multimeric proteins was also tested as […]. […] Prior to the protein measurements, three startup cycles were performed for conditioning purposes. Data were evaluated with Biacore Evaluation software. Double referencing was used and the 1:1 binding model was used to fit the raw data.

human 4-1BB on cells [4] = target: T3, human 4-1BB on cells; test: cell-based or functional assay

Row | EC50 [1] | EC50 [2] | EC50 (human 4-1BB on cells [3]) | Kd (hu4-1BB-Fc (R&D Systems)) | koff (hu4-1BB-Fc (R&D Systems)) | kon (hu4-1BB-Fc (R&D Systems)) | EC50 [nM], 4-1BB bioassay (NFκB-luc2/4-1BB Jurkat luminescence), with HepG2 cells (human 4-1BB on cells [4]) | Binder
1 | 0.26 nM | 6.59 nM | 8.5 nM | 0.28 nM | 1.74e-05 s⁻¹ | 61300 M⁻¹ s⁻¹ |  | multimeric protein SEQ ID NO: 42 (designed binder) QDSTSDLIPAPPLSKVPLQQNFQDNQFHGKWYVVGQAGNIRLREDKDPIKMMATIYELKEDKSYDVTMVKFDDKKCMYDIWTFVPGSQPGEFTLGKIKSFPGHTSSLVRVVSTNYNQHAMVFFKFVFQNREEFYITLYGRTKELTSELKENFIRFSKSLGLPENHIVFPVPIDQCIDGAEAAAKEAAAKEAAAKAGVRLWATRQAMLGQVHEVPEGWLIFVAEQEELYVRVQNGFRKVQLEARTPLGGSGGAPEQKLISEEDLGSHHHHHHHHHH
2 | 0.1 nM | 2.83 nM | 2.98 nM | 0.34 nM | 2.76e-05 s⁻¹ | 81600 M⁻¹ s⁻¹ | 0.82 nM | multimeric protein SEQ ID NO: 48 (designed binder) QDSTSDLIPAPPLSKVPLQQNFQDNQFHGKWYVVGQAGNIRLREDKDPIKMMATIYELKEDKSYDVTMVKFDDKKCMYDIWTFVPGSQPGEFTLGKIKSFPGHTSSLVRVVSTNYNQHAMVFFKFVFQNREEFYITLYGRTKELTSELKENFIRFSKSLGLPENHIVFPVPIDQCIDGGGGGSGGGGSGGGGSGVRLWATRQAMLGQVHEVPEGWLIFVAEQEELYVRVQNGFRKVQLEARTPLGGGGSGGGGSGGGGSQDSTSDLIPAPPLSKVPLQQNFQDNQFHGKWYVVGQAGNIRLREDKDPIKMMATIYELKEDKSYDVTMVKFDDKKCMYDIWTFVPGSQPGEFTLGKIKSFPGHTSSLVRVVSTNYNQHAMVFFKFVFQNREEFYITLYGRTKELTSELKENFIRFSKSLGLPENHIVFPVPIDQCIDGGGSGGAPEQKLISEEDLGSHHHHHHHHHH
3 | 0.16 nM |  |  | 0.39 nM | 4.42e-05 s⁻¹ | 114000 M⁻¹ s⁻¹ |  | multimeric protein SEQ ID NO: 43 (designed binder) GVRLWATRQAMLGQVHEVPEGWLIFVAEQEELYVRVQNGFRKVQLEARTPLGGGGSGGGGSGGGGSQDSTSDLIPAPPLSKVPLQQNFQDNQFHGKWYVVGQAGNIRLREDKDPIKMMATIYELKEDKSYDVTMVKFDDKKCMYDIWTFVPGSQPGEFTLGKIKSFPGHTSSLVRVVSTNYNQHAMVFFKFVFQNREEFYITLYGRTKELTSELKENFIRFSKSLGLPENHIVFPVPIDQCIDGGGSGGAPEQKLISEEDLGSHHHHHHHHHH
4 | 0.1 nM | 3.81 nM | 3.81 nM | 0.66 nM | 6.52e-05 s⁻¹ | 98700 M⁻¹ s⁻¹ |  | multimeric protein SEQ ID NO: 47 (designed binder) QDSTSDLIPAPPLSKVPLQQNFQDNQFHGKWYVVGQAGNIRLREDKDPIKMMATIYELKEDKSYDVTMVKFDDKKCMYDIWTFVPGSQPGEFTLGKIKSFPGHTSSLVRVVSTNYNQHAMVFFKFVFQNREEFYITLYGRTKELTSELKENFIRFSKSLGLPENHIVFPVPIDQCIDGGGGGSGGGGSGGGGSKPLDGEYFTLQIRGRERFEMFRELNEALELKDAQAGKEPGGSGGAPEQKLISEEDLGSHHHHHHHHHH
5 | 0.16 nM | 5.92 nM | 4.89 nM | 0.25 nM | 2.22e-05 s⁻¹ | 89200 M⁻¹ s⁻¹ |  | multimeric protein SEQ ID NO: 38 (designed binder, Trivalent; Self-assembled from its monomer polypeptides) QDSTSDLIPAPPLSKVPLQQNFQDNQFHGKWYVVGQAGNIRLREDKDPIKMMATIYELKEDKSYDVTMVKFDDKKCMYDIWTFVPGSQPGEFTLGKIKSFPGHTSSLVRVVSTNYNQHAMVFFKFVFQNREEFYITLYGRTKELTSELKENFIRFSKSLGLPENHIVFPVPIDQCIDGGGGGSGGGGSGGGGSGVRLWATRQAMLGQVHEVPEGWLIFVAEQEELYVRVQNGFRKVQLEARTPLGGSGGAPEQKLISEEDLGSHHHHHHHHHH
6 | 0.24 nM | 3.68 nM | 5.87 nM | 0.38 nM | 2.63e-05 s⁻¹ | 68800 M⁻¹ s⁻¹ |  | multimeric protein SEQ ID NO: 39 (designed binder) QDSTSDLIPAPPLSKVPLQQNFQDNQFHGKWYVVGQAGNIRLREDKDPIKMMATIYELKEDKSYDVTMVKFDDKKCMYDIWTFVPGSQPGEFTLGKIKSFPGHTSSLVRVVSTNYNQHAMVFFKFVFQNREEFYITLYGRTKELTSELKENFIRFSKSLGLPENHIVFPVPIDQCIDGGGGGSGVRLWATRQAMLGQVHEVPEGWLIFVAEQEELYVRVQNGFRKVQLEARTPLGGSGGAPEQKLISEEDLGSHHHHHHHHHH
7 | 0.13 nM | 2.75 nM | 4.99 nM | 0.21 nM | 1.91e-05 s⁻¹ | 90200 M⁻¹ s⁻¹ | 0.9 nM | multimeric protein SEQ ID NO: 49 (designed binder) QDSTSDLIPAPPLSKVPLQQNFQDNQFHGKWYVVGQAGNIRLREDKDPIKMMATIYELKEDKSYDVTMVKFDDKKCMYDIWTFVPGSQPGEFTLGKIKSFPGHTSSLVRVVSTNYNQHAMVFFKFVFQNREEFYITLYGRTKELTSELKENFIRFSKSLGLPENHIVFPVPIDQCIDGGGGGSGVRLWATRQAMLGQVHEVPEGWLIFVAEQEELYVRVQNGFRKVQLEARTPLGGGGSGGGGSGGGGSQDSTSDLIPAPPLSKVPLQQNFQDNQFHGKWYVVGQAGNIRLREDKDPIKMMATIYELKEDKSYDVTMVKFDDKKCMYDIWTFVPGSQPGEFTLGKIKSFPGHTSSLVRVVSTNYNQHAMVFFKFVFQNREEFYITLYGRTKELTSELKENFIRFSKSLGLPENHIVFPVPIDQCIDGGGSGGAPEQKLISEEDLGSHHHHHHHHHH
8 | 0.19 nM | 5.63 nM | 7.37 nM | 0.31 nM | 2.07e-05 s⁻¹ | 66200 M⁻¹ s⁻¹ |  | multimeric protein SEQ ID NO: 41 (designed binder) QDSTSDLIPAPPLSKVPLQQNFQDNQFHGKWYVVGQAGNIRLREDKDPIKMMATIYELKEDKSYDVTMVKFDDKKCMYDIWTFVPGSQPGEFTLGKIKSFPGHTSSLVRVVSTNYNQHAMVFFKFVFQNREEFYITLYGRTKELTSELKENFIRFSKSLGLPENHIVFPVPIDQCIDGGSPTPTPTTPTPTPTGVRLWATRQAMLGQVHEVPEGWLIFVAEQEELYVRVQNGFRKVQLEARTPLGGSGGAPEQKLISEEDLGSHHHHHHHHHH
9 | 0.22 nM | 5.03 nM | 6.64 nM | 0.24 nM | 2.07e-05 s⁻¹ | 87500 M⁻¹ s⁻¹ |  | multimeric protein SEQ ID NO: 44 (designed binder) GVRLWATRQAMLGQVHEVPEGWLIFVAEQEELYVRVQNGFRKVQLEARTPLGGGGSQDSTSDLIPAPPLSKVPLQQNFQDNQFHGKWYVVGQAGNIRLREDKDPIKMMATIYELKEDKSYDVTMVKFDDKKCMYDIWTFVPGSQPGEFTLGKIKSFPGHTSSLVRVVSTNYNQHAMVFFKFVFQNREEFYITLYGRTKELTSELKENFIRFSKSLGLPENHIVFPVPIDQCIDGGGSGGAPEQKLISEEDLGSHHHHHHHHHH
